In assay [1] the target is T1, D2H receptor domain (human D2H transporter, amino acid residues 387-685), His-tag fusion protein (human, UniProt Q07837 387-685).
T1 construct: purified under denaturing conditions; also called recombinant D2H; not shown: poly-histidine tag (pET vector) at the NH2-terminal end
T1 sequence: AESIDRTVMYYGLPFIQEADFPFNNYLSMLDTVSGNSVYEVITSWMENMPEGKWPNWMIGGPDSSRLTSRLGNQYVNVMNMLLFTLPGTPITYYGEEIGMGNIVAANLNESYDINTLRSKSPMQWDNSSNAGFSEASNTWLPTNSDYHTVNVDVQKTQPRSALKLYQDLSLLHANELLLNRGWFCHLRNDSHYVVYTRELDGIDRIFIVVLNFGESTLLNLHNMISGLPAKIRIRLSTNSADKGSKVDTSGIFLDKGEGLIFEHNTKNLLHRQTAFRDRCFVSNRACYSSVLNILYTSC
Briefly: phage ELISA, OD on D2H over OD on BSA. Here is the method: (§1) 6.6. Receptor ELISA Procedure 96 well plates were coated overnight with GIT receptor, BSA and, optionally, IDE (insulin degrading enzyme, an irrelevant His-fusion protein)or hTF. The plates were blocked for one hour with 0.5% BSA-PBS. After clarification, the amplified phage were diluted 1:100 in […] plus 0.05% Tween 20 in PBS and added to the plates. Following incubation of the plates on a rotator for 1 to 2 hours, the plates were washed 5 times with 1% BSA plus 0.05% Tween 20 in PBS. […] After the plates were washed 5 times, as described above, TMB substrate was added to the wells. The plates were read at 650 nm absorbance.
(§2) Binding to fixed Caco-2 cells, D2H and BSA was examined.
Background: An ELISA detects its analyte on a solid surface through an enzyme-linked reagent.

Assay [2] concerns the target T1, D2H receptor domain (human D2H …). Description: phage ELISA, plate coated with D2H domain. Here is the method: as §1, §2

B1: DCX8 (peptide)
peptide: RYKHDIGCDAGVDKKSSSVRGGCGAHSSPPRAGRGPRGTMVSRLAETVESCLAKPHTENSFTNVWKDDKTLDRYANYEGCLWNATGVVVCTGDETQCYGTWVPIGLAIPENEGGGSEGGGSEGGGSEGGGTKPPEYGDTPIPGYTYINPLDGTYPPGTEQNPANPNPSLEESQPLNTFMFQNNRFRNRQGALTVYTGTVTQGTDPVKTYYQYTPVSSKAMYDAYWNGKFRDCAFHSGFNEDPFVCEYQGQSSDLPQPPVNAGGGSGGGSGGGSEGGGSEGGGSEGGGSEGGGSGGGSGSGDFDYEKMANANKGAMTENADENALQSDAKGKLDSVATDYGAAIDGFIGDVSGLANGNGATGDFAGSNSQMAQVGDGDNSPLMNNFRQYLPSLPQSVECRPFVFSAGKPYEFSIDCDKINLFRGVFAFLLYVATFMYVFSTFANILRNKES
notes: Assayed as M13 phage clone displaying the insert
Molecule B1 gave a D2H/BSA in assay [1] of 3 ratio. The OD in assay [2] is 0.163 OD.

B2: DCX11 (peptide)
peptide: SQGSKQCMQYRTGRLTVGSEYGCGMNPARHATPAYPARLLPRYRAETVESCLAKPHTENSFTNVWKDDKTLDRYANYEGCLWNATGVVVCTGDETQCYGTWVPIGLAIPENEGGGSEGGGSEGGGSEGGGTKPPEYGDTPIPGYTYINPLDGTYPPGTEQNPANPNPSLEESQPLNTFMFQNNRFRNRQGALTVYTGTVTQGTDPVKTYYQYTPVSSKAMYDAYWNGKFRDCAFHSGFNEDPFVCEYQGQSSDLPQPPVNAGGGSGGGSGGGSEGGGSEGGGSEGGGSEGGGSGGGSGSGDFDYEKMANANKGAMTENADENALQSDAKGKLDSVATDYGAAIDGFIGDVSGLANGNGATGDFAGSNSQMAQVGDGDNSPLMNNFRQYLPSLPQSVECRPFVFSAGKPYEFSIDCDKINLFRGVFAFLLYVATFMYVFSTFANILRNKES
notes: as for B1
Molecule B2 had a D2H/BSA in assay [1] of 3 ratio. In addition, in assay [2], the OD turned out to be 0.222 OD.

The record behind these values is patent US6703362 (CYTOGEN, dated 2004).
